This is an account of results in patent US5707800, “Retinoic acid response elements and assays employing same” (The Salk Institute for Biological Studies).

For data set [1], the system named is RAR (subtype not stated). Kind of data set: cell_activity. As to conditions: CV-1 cells; RAR blocks RXR transactivation at equal expression vector amount; no RA activation by RAR itself.
The target of data set [2] is RXR alpha (retinoid X receptor alpha) (Homo sapiens, UniProt P19793 P19793:1-462). Kind of data set: cell_activity; CAT induction by retinoic acid in F9 cells, CRBPII promoter reporter pCRBPII-CAT. The conditions noted are these: tags: expression plasmid; chain copies: 4; label: 32P. As for the experimental part:
Chem. 262:2425–2467 (1987)], was introduced into a plasmid which would regulate expression of the reporter, bacterial chloramphenicol acetyl transferase (see FIG. 1). The resultant reporter plasmid, pCRBPII-CAT, was tested for retinoic acid (RA) responsiveness after transfection into mouse embryonal teratocarcinoma F9 cells. F9 cells endogenously express high amounts of retinoic acid receptor (RAR), and can efficiently transactivate (>100-fold) a reporter plasmid containing the well characterized RA-inducible promoter of the RARβ gene [see de The et al., in Nature 343:177–180 (1990) and Sucov, et al., in Proc. Natl. Acad. Sci. U.S.A. 87:5392–5396 (1990)]. However, pCRBPII-CAT conferred no basal or RA-inducible CAT activity in these cells. To eliminate the possibility that regulation of the CRBPII promoter requires an augmented concentration of RAR, as is the case for the laminin retinoic acid response element [RARE; see Vasias, et al., in Proc. Natl Acad. Sci. U.S.A. 86:9099–9103 (1989], or that its regulation is isoform specific, expression vectors bearing all three subtypes of RAR were each separately cotransfected with pCRBPII-CAT into F9 cells.
To assess the exact sequences within the CRBPII promoter that function as an RXR response element (RXRE), a series of 5'-deletion mutants were constructed starting with the parent reporter plasmid pCRBPII-CAT (see FIG. 2). […]

RXR alpha (retinoid X receptor alpha), sequence (P19793 whole entry, one chain of several): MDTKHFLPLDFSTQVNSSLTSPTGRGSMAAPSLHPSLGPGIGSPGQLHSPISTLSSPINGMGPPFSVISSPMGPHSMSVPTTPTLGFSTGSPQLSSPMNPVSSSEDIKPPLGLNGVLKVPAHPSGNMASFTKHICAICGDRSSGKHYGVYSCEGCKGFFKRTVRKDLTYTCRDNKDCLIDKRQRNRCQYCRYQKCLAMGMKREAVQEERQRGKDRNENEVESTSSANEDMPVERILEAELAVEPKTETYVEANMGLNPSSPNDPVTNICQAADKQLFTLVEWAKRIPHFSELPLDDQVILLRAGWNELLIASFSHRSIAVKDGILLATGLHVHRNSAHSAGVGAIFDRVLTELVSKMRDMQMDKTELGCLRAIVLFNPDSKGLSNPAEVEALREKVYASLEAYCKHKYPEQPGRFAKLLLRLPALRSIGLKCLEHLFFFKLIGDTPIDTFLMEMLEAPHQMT

“GCTGTCACAGGTCACAGGTCACAGGTCACAGTTCA (double strand) [CRBPII-RXRE]”: the activity (% suppression of RXR activation) in data set [1] is 90.

B1: CRBPII-RXRE (dsDNA)
DNA 1: GCTGTCACAGGTCACAGGTCACAGGTCACAGTTCA
DNA 2: TGAACTGTGACCTGTGACCTGTGACCTGTGACAGC
In turn, B1 yielded an activity in data set [2] of 100 fold.
